According to article PMC4640833, “Identification of a Novel Di-D-Fructofuranose 1,2’:2,3’ Dianhydride (DFA III) Hydrolysis Enzyme from Arthrobacter aurescens SK8.001” (PLoS ONE, 2015):

Legend:
[1] = molecular target: DFA III hydrolysis enzyme (DFA IIIase) from Arthrobacter aurescens SK8.001 (Arthrobacter aurescens SK8.001); assay: SEC; gel filtration by HPLC, TSK G2000SWxl column, 0.1 M phosphate buffer pH 6.7 with 0.05% NaN3 and 0.1 M Na2SO4, 1 mL/min, UV 280 nm; native mass about 145 kDa against 49 kDa subunit by SDS-PAGE; mass markers for calibration
[2] = substrate: OC[C@H]1O[C@@]2(CO[C@]3(CO)O[C@H](CO)[C@@H](O)[C@@H]3O2)[C@@H](O)[C@@H]1O; assay: HPLC (refractive index) of inulobiose produced, nonlinear Michaelis-Menten fit; assay type: biochemical, Paenarthrobacter aurescens; conditions: 50 mM citrate buffer pH 5.5, 55°C, 10 min, DFA III 2.0-50 mM

stoichiometry N [1]	Molecule	Km [2] [mM]
3	DFA III hydrolysis enzyme (DFA IIIase) from Arthrobacter aurescens SK8.001	
	AaDFA IIIase (Paenarthrobacter aurescens) (protein, full length 470 residues (49,879 Da), no signal peptide, C-terminal 6xHis tag kept, pET-22b(+) in E. coli BL21(DE3), homotrimer 145 kDa) MSNSNYYNVTAWPIGDPFTGVGEVINSIIADIKDRQTATDENDGGKPGAVIYLPPGDYRLRTQVVIDVSFLRIEGSGHGFTSSSIRFNAPEAEWPDLHELWPGGSRVMVDLPIIDDERPSDLLPDQESKGAAFYVERSGSPRISSVEFSNFCIDGLHFTPDGSGLPAENSYVNGKTGIYVASANDSFRVNGMGFVYLENALTICKADALSVHDNFIAECGSCIELRGWGQASKITDNLIGAGFKGHSIYAQNHGGLLITANNIFPRGASSIHFEGVTRSSVSNNRLHSFYPGMVVLAEGSSENLVSTNHFLRDHEPWTPFLGVDNGRDDLYGILRISGSNNSVIGNHFSEVVDAQSIWPSGATPVIIRLAEGTGNFVSNNHVVAMDVRSASSDSCFAAQVDALLTTGASDGLAVTAVLVDSTSARNTILDSGNDAQVIADRGANAVRATPTVGFAAAESTQSSQGAGIPR	30.7 ± 4.3
